Laboratory results taken from the Human Domainome abundance scans (Beltran et al. 2025).
± gives the uncertainty stated by the source.

B1: Chromodomain-helicase-DNA-binding protein 3, residues 374 to 426; numbered along this chain, Q12873 (parent)
chain: YETDHQDYCEVCQQGGEIILCDTCPRAYHLVCLDPELDRAPEGKWSCPHCEKE

Variants of: B1
Test: abundance fitness (aPCA) (normalised: wild type 0, dead -1); higher = more abundant; growth selection in yeast, the domain comes from the species named
Conditions: Homo sapiens

Variant	abundance fitness
V31G	-0.094 ± 0.13
V31W	-0.26 ± 0.14
V31L	-0.17 ± 0.094
V31N	-0.314 ± 0.12
V31Q	-0.012 ± 0.13
V31C	-0.254 ± 0.15
V31E	-0.229 ± 0.14
V31T	-0.3 ± 0.11
V31H	0.038 ± 0.13
V31M	-0.03 ± 0.12
V31D	-0.18 ± 0.15
V31A	0.158 ± 0.12
V31S	-0.061 ± 0.096
V31K	-0.132 ± 0.15
V31F	-0.09 ± 0.12
V31Y	-0.297 ± 0.17
V31I	-0.245 ± 0.12
L33E	-0.365 ± 0.18
L33R	-0.39 ± 0.091
L33C	0.072 ± 0.12
L33N	-0.326 ± 0.14
L33T	-0.208 ± 0.1
L33D	-0.755 ± 0.29
L33P	-0.427 ± 0.12

Variant	abundance fitness
L33V	-0.182 ± 0.13
L33I	-0.214 ± 0.14
L33Y	-0.133 ± 0.15
L33K	-0.663 ± 0.15
L33G	0.07 ± 0.1
L33S	-0.286 ± 0.11
L33M	-0.148 ± 0.13
L33A	-0.12 ± 0.12
L33F	-0.449 ± 0.14
L33H	-0.146 ± 0.15
A40P	-0.138 ± 0.15
A40D	0.026 ± 0.19
A40Q	0.126 ± 0.14
A40H	-0.412 ± 0.22
A40G	-0.398 ± 0.1
A40R	-0.129 ± 0.11
A40Y	-0.38 ± 0.17
A40K	-0.188 ± 0.19
A40C	-0.33 ± 0.13
A40V	-0.081 ± 0.1
A40L	-0.107 ± 0.1
A40E	0.13 ± 0.12
A40T	-0.162 ± 0.17
A40M	-0.004 ± 0.13

Variant	abundance fitness
A40N	-0.169 ± 0.26
A40W	-0.346 ± 0.17
A40S	-0.221 ± 0.1
A40F	-0.44 ± 0.16
E42A	-0.171 ± 0.1
E42Y	-0.219 ± 0.16
E42V	-0.044 ± 0.1
E42D	-0.484 ± 0.19
E42Q	-0.088 ± 0.17
E42P	-0.138 ± 0.2
E42T	-0.173 ± 0.2
E42R	-0.232 ± 0.11
E42W	-0.396 ± 0.14
E42L	0.066 ± 0.1
E42F	-0.296 ± 0.17
E42S	-0.06 ± 0.12
E42M	-0.203 ± 0.17
E42H	0.164 ± 0.21
E42K	-0.181 ± 0.22
E42G	0.003 ± 0.1
E42C	-0.005 ± 0.13
C32L	-0.986 ± 0.095
C32F	-1.05 ± 0.11
C32K	-0.958 ± 0.21

Variant	abundance fitness
C32Q	-0.821 ± 0.15
C32E	-0.663 ± 0.24
C32S	-0.68 ± 0.086
C32A	-1.09 ± 0.14
C32H	-0.163 ± 0.085
C32P	-0.957 ± 0.11
C32I	-1.06 ± 0.12
C32R	-1.06 ± 0.12
C32M	-0.94 ± 0.18
C32D	-0.718 ± 0.16
C32V	-1.2 ± 0.15
C32T	-0.948 ± 0.12
C32W	-0.502 ± 0.15
C32N	-0.797 ± 0.13
E36I	-0.145 ± 0.26
E36V	-0.018 ± 0.1
E36T	-0.172 ± 0.26
E36A	-0.029 ± 0.13
E36F	-0.083 ± 0.19
E36D	-0.507 ± 0.2
E36M	-0.024 ± 0.2
E36R	0.018 ± 0.11
E36H	-0.15 ± 0.23
E36W	-0.478 ± 0.2

Variant	abundance fitness
E36C	0.182 ± 0.19
E36Y	-0.405 ± 0.32
E36P	-0.039 ± 0.15
E36S	-0.335 ± 0.13
E36G	-0.009 ± 0.1
E36N	0.143 ± 0.27
E36L	-0.114 ± 0.11
E36Q	-0.193 ± 0.15
C24A	-0.799 ± 0.23
C24I	-0.9 ± 0.35
C24K	-0.919 ± 0.21
C24H	-0.907 ± 0.25
C24W	-1.12 ± 0.19
C24E	-1.16 ± 0.26
C24G	-0.962 ± 0.14
C24F	-1.05 ± 0.23
C24V	-1.08 ± 0.15
C24D	-0.754 ± 0.22
C24M	-0.914 ± 0.24
C24P	-1.11 ± 0.21
C24T	-0.687 ± 0.17
C24R	-0.951 ± 0.14
C24Y	-1.34 ± 0.24
C24Q	-0.898 ± 0.24

Variant	abundance fitness
C24S	-0.617 ± 0.15
R39G	-0.123 ± 0.13
R39S	0.01 ± 0.12
R39T	-0.037 ± 0.17
R39A	0.068 ± 0.14
R39L	-0.156 ± 0.14
R39N	0.034 ± 0.21
R39M	-0.009 ± 0.18
R39H	-0.248 ± 0.25
R39V	-0.248 ± 0.11
R39P	-0.084 ± 0.24
R39W	-0.2 ± 0.19
R39I	0.149 ± 0.17
R39Q	-0.182 ± 0.26
R39C	-0.221 ± 0.17
R39Y	-0.027 ± 0.19
R39D	-0.138 ± 0.17
R39F	-0.254 ± 0.14
G43H	-0.12 ± 0.16
G43E	0.22 ± 0.15
G43C	-0.369 ± 0.13
G43D	-0.031 ± 0.16
G43A	-0.314 ± 0.15
G43F	-0.257 ± 0.19

Variant	abundance fitness
D34E	-0.011 ± 0.11
D34I	-0.383 ± 0.14
D34W	-0.747 ± 0.22
D34G	-0.156 ± 0.099
D34K	-0.079 ± 0.12
D34Y	-0.327 ± 0.13
D34S	-0.127 ± 0.091
D34L	-0.083 ± 0.092
D34M	-0.494 ± 0.13
D34C	-0.316 ± 0.15
D34A	-0.198 ± 0.082
D34F	-0.287 ± 0.12
D34R	-0.197 ± 0.093
D34V	-0.1 ± 0.08
D34P	-0.089 ± 0.11
D34H	-0.385 ± 0.14
D34N	-0.189 ± 0.11
D34Q	-0.112 ± 0.15
Y28A	0.122 ± 0.12
Y28L	-0.059 ± 0.1
Y28W	0.143 ± 0.14
Y28K	-0.578 ± 0.22
Y28V	-0.284 ± 0.11
